Biological target: Met receptor on MDCK cells (UniProt Q75ZY9 25-1382, limits assumed)
Test: cell-based or functional assay

inhibition of HGF-induced activation of Met: ~5 fold lower concentration
B1: recombinant Aras-4, soluble (ligand)
chain: YAEGQGKRRNTIHEFKKSAKTTLIKIDPALRIKTEKANTADQCANRCTRSKGLPFTCKAFVFDKARKRCLWFPFNSMSSGVKKEFGHEFDLYENKAYIRDCIIGRGRNYRGTVSITKSGIKCQPWSAMIPHEHSFLPSSYRGEDLRENYCRNPRGEEGGPWCYTSDPEVRYEVCDIPQCSEVE

From patent US20220184181A1 (Stanford University, published 2022)
